Data as given in patent US20230094463A1, “ANTIBODIES THAT DISRUPT THE INTERACTION OF GAL3 AND INSULIN RECEPTOR OR INTEGRINS AND METHODS OF USE THEREOF” (TrueBinding, Inc., priority 2019, published 2023).

Target: T1, Gal3 peptides (SEQ ID NOs: 3-26) (Homo sapiens, UniProt P17931)
T1 construct: a library of 24 amino acid peptides representing portions of Gal3; purchased LifeTein custom order
Assay: Gal3 peptide library binding ELISA (epitope mapping)

B1: TB001: Gal3-targeted Gal3-INSR blocking anti-Gal3 antibody; IMT001-4 used with human IgG4 isotype control (antibody, V domains shown)
VH: QVQLVQSGSELKKPGASVKVSCKASGYTFTNYGMNWVRQAPGQGLKWMGWINTNTGEPTYVEEFTGRFVFSLETSVSTAYLQISSLKAEDTAVYFCAPYDNFFAYWGQGTTVTVSS
VL: DIVLTQSPLSLPVTPGEPASISCRSSKSLLYKDGKTYLNWFLQKPGQSPQLLIYLMSTHASGVPDRFSGSGSGTDFTLKISRVEAEDVGVYYCQQLVDYPLTFGGGTKLEIK
What does the source list for B1?
binding to Gal3 Peptide 5 (Peptide 5 (SEQ ID NO: 7)): bind; binding to Gal3 Peptide 6 (Peptide 6 (SEQ ID NO: 8), amino acids 51-70 of Gal3, listed as IMT001 (TB001)): bind and bound
